Measured values from patent publication US20250076311A1 (Chugai, published 2025).
Substitutions are numbered along the chain they refer to. In names and notes the source's numbering stands. Each block holds one binder with its values, some of them ahead of it.

Tests used:
[1] = target: T1, cynomolgus monkey FcγRIIa1 extracellular domain, His-tagged (cynomolgus monkey); experiment: SPR (Biacore), 25C, KD of SG1 / KD of variant
T1 construct: also called cyno FcgRIIa1
T1 chain: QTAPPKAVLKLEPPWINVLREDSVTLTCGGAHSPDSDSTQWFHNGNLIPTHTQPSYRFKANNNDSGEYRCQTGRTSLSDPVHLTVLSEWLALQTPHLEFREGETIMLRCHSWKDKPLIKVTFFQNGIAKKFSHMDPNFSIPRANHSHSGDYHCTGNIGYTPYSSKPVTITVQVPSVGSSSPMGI

[2] = target: T2, cynomolgus monkey FcγRIIa2 extracellular domain, His-tagged (cynomolgus monkey); experiment: SPR (Biacore), 25C, KD of SG1 / KD of variant
T2 construct: also called cyno FcgRIIa2
T2 chain: T1 chain with P95T, T121A, I127K, A128S, K130N, D135N, R142Q

[3] = target: T3, cynomolgus monkey FcγRIIa3 extracellular domain, His-tagged (cynomolgus monkey); experiment: SPR (Biacore), 25C, KD of SG1 / KD of variant
T3 construct: also called cyno FcgRIIa3
T3 chain: T1 chain with P95T, T121A, A128S, H133P, D135N

[4] = target: T4, cynomolgus monkey FcγRIIb extracellular domain, His-tagged (cynomolgus monkey); experiment: SPR (Biacore), 25C, KD of SG1 / KD of variant
T4 construct: also called cyno FcgRIIb
T4 chain: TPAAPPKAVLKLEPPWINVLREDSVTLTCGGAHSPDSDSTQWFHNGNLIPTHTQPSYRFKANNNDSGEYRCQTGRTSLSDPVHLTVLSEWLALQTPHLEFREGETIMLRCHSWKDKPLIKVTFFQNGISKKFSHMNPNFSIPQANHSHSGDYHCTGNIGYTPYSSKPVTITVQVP

[5] = target: T5, cynomolgus monkey FcγRIIIaS extracellular domain, His-tagged (cynomolgus monkey, UniProt Q8SPW2 21-206 at identity 1.00)); experiment: SPR (Biacore), 25C, KD of SG1 / KD of variant
T5 construct: also called cyno FcgRIIIaS
T5 chain: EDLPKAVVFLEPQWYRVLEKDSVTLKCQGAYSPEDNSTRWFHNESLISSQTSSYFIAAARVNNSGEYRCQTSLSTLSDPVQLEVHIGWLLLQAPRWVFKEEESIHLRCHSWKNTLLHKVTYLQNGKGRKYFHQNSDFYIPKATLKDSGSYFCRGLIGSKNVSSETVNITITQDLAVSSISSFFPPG

[6] = target: T6, human FcγRIIaH extracellular domain, His-tagged (human, UniProt P12318 34-217); experiment: SPR (Biacore), 25C, KD of SG1 / KD of variant
T6 construct: also called human FcgRIIaH; FcγRIIa type H
T6 sequence: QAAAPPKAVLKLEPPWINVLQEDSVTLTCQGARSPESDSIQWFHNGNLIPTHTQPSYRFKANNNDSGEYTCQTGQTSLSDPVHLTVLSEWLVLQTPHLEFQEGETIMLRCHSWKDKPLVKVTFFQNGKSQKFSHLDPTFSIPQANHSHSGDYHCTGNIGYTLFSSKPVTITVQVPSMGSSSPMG

[7] = target: T7, human FcγRIIaR extracellular domain, His-tagged (human, UniProt P12318 34-217); experiment: SPR (Biacore), 25C, KD of SG1 / KD of variant
T7 construct: also called human FcgRIIaR; FcγRIIa type R
T7 chain: T6 sequence with H134R

[8] = target: T8, human FcγRIIb extracellular domain, His-tagged (human, UniProt P31994 43-217); experiment: SPR (Biacore), 25C, KD of SG1 / KD of variant
T8 construct: also called human FcgRIIb
T8 sequence: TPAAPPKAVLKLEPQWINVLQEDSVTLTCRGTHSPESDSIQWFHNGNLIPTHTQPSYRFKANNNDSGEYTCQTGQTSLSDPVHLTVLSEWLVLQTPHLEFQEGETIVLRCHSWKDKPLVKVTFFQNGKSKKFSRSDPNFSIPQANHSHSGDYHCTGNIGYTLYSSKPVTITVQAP

[9] = target: T9, human FcγRIIIaV extracellular domain, His-tagged (human, UniProt P08637 17-208); experiment: SPR (Biacore), 25C, KD of SG1 / KD of variant
T9 construct: also called human FcgRIIIaV
T9 sequence (P08637 17-208 F176V): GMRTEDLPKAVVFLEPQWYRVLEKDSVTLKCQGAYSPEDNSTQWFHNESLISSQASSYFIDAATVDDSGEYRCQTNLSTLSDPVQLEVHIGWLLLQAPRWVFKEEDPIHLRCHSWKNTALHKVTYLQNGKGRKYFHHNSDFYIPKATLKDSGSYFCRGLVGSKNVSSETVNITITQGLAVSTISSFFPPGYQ

[10] = target: T1, cynomolgus monkey FcγRIIa1 …; experiment: SPR (Biacore), 25C, FcgR bound per antibody captured
Experimental: (§1) In the next step, cross-reactivity of these substitutions to cynoFcγRs was evaluated.
(§2) The value of the amount of FcγR binding was obtained by dividing the amount of FcγR bound by the amount of each antibody captured.

[11] = target: T2, cynomolgus monkey FcγRIIa2 …; experiment: as above
Experimental: as §1, §2

[12] = target: T3, cynomolgus monkey FcγRIIa3 …; experiment: as above
Experimental: as §1, §2

[13] = target: T4, cynomolgus monkey FcγRIIb extracellular …; experiment: as above
Experimental: as §1, §2

[14] = target: T5, cynomolgus monkey FcγRIIIaS …; experiment: as above
Experimental: as §1, §2

[15] = target: T2, cynomolgus monkey FcγRIIa2 …; experiment: SPR (Biacore), 25C, antibody captured, FcgR as analyte
Experimental: (§3) The kinetic analysis of interactions between these antibodies and FcγR was carried out using BIACORE® T200 or BIACORE® 4000 (GE Healthcare). HBS-EP+ (GE Healthcare) was used as the running buffer, and the measurement temperature was set to 25° C. […] After the measurement, the antibody captured on the chip was washed off by allowing reaction with 10 mM glycine-HCl, pH1.5 and 25 mM NaOH so that the chip was regenerated and used repeatedly. The sensorgrams obtained as measurement results were analyzed by the 1:1 Langmuir binding model using the BIACORE® Evaluation Software to calculate the binding rate constant ka (L/mol/s) and dissociation rate constant kd (1/s), and the dissociation constant KD (mol/L) was calculated from these values. […] Regarding such interactions, KD values were calculated using the following 1:1 binding model described in BIACORE® T100 Software Handbook BR1006-48 Edition AE.

[16] = target: T7, human FcγRIIaR extracellular domain, …; experiment: as above
Experimental: as §3

[17] = target: T9, human FcγRIIIaV extracellular domain, …; experiment: as above
Experimental: as §3

[18] = target: T10, human FcγRIIIaV extracellular domain, His-tagged (human, UniProt P08637 17-208); experiment: SPR (BIACORE), antibody captured on chip, FcγR as analyte, 25 C; KD of SG1 divided by KD of the variant
T10 construct: also called human FcγRIIIa (V158 allotype); FcgRIIIaV; not shown: His-tag added to the C-terminus
Experimental: as §3
T10 sequence (P08637 17-208 F176V): as above

[19] = target: T11, cynomolgus monkey FcγRIIa1 extracellular domain with C-terminal His-tag (cynomolgus monkey); experiment: SPR (Biacore), KD of SG1 divided by KD of variant
T11 construct: also called cyno FcgRIIa1; cynoFcγRIIa1
T11 chain: T1 chain

[20] = target: T12, human FcγRIIb extracellular domain with C-terminal His-tag (human, UniProt P31994 43-217); experiment: SPR (Biacore), KD of SG1 divided by KD of variant
T12 construct: also called human FcgRIIb
T12 sequence: T8 sequence

[21] = target: T11, cynomolgus monkey FcγRIIa1 …; experiment: SPR (Biacore), antibody captured, FcgR as analyte
[22] = target: T13, cynomolgus monkey FcγRIIa3 extracellular domain with C-terminal His-tag (cynomolgus monkey); experiment: SPR (Biacore), KD of SG1 divided by KD of variant
T13 construct: also called cyno FcgRIIa3; cynoFcγRIIa3
T13 chain: T1 chain with P95T, T121A, A128S, H133P, D135N

[23] = target: T14, human FcγRIIaR extracellular domain with C-terminal His-tag (human, UniProt P12318 34-217); experiment: SPR (Biacore), KD of SG1 divided by KD of variant
T14 construct: also called human FcgRIIaR; FcγRIIa (type R)
T14 chain: T6 sequence with H134R

[24] = target: T15, human FcγRIIIaV extracellular domain with C-terminal His-tag (human, UniProt P08637 17-208); experiment: SPR (Biacore), KD of SG1 divided by KD of variant
T15 construct: also called human FcgRIIIaV
T15 sequence (P08637 17-208 F176V): as above

[25] = target: T16, cynomolgus monkey FcγRIIIaS extracellular domain with C-terminal His-tag (cynomolgus monkey, UniProt Q8SPW2 21-206 at identity 1.00)); experiment: SPR (Biacore), KD of SG1 divided by KD of variant
T16 construct: also called cyno FcgRIIIaS; cynoFcγRIIIaS
T16 chain: T5 chain

[26] = target: T17, human FcγRIIaH extracellular domain with C-terminal His-tag (human, UniProt P12318 34-217); experiment: SPR (Biacore), antibody captured, FcgR as analyte
T17 construct: also called human FcgRIIaH; FcγRIIa (type H)
T17 sequence: T6 sequence

[27] = target: T14, human FcγRIIaR extracellular domain …; experiment: SPR (Biacore), antibody captured, FcgR as analyte

B2: M103205H795-MY318/M103202L889-SK1 (antibody, human IgG1, kappa, name in EU numbering)
heavy: QVTLKESGPVLVKPTETLTLTCTVSGIDLSHDDISWVRQAPGKGLEWVGIISYAGSTYYASWAKGRLTISKDTSKNQVVLTMTNMDPVDTATYYCARGVPAYSHGGDLWGQGTLVTVSSASTKGPSVFPLAPSSKSTSGGTAALGCLVKDYFPEPVTVSWNSGALTSGVHTFPAVLQSSGLYSLSSVVTVPSSSLGTQTYICNVNHKPSNTKVDKKVEPKSCDKTHTCPPCPAPELLLGPSVFLFPPKPKDTLMISRTPEVTCVVVDVSEEDPEVKFNWYVDGVEVHNAKTKPREEQYNSTYRVVSVLTVLHQDWLNGKEYKCKVSNTALPKPIEKTISKAKGQPREPQVYTLPPSREEMTKNQVSLTCLVKGFYPSDIAVEWESNGQPENNYKTTPMVLDSDGSFFLYSKLTVDKSRWQQGNVFSCSVMHEALHNHYTQKSLSLSP
light: DIVMTQSPATLSLSPGERATLSCTSSQSVYHANWLSWFQQKPGQPPKLLIYWASTLAYGVPSRFSGSGSGTDFTLTISSLQPEDAATYYCAGGYGGGRYAFGQGTKVEIKRTVAAPSVFIFPPSDEQLKSGTASVVCLLNNFYPREAKVQWKVDNALQSGNSQESVTEQDSKDSTYSLSSTLTLSKADYEKHKVYACEVTHQGLSSPVTKSFNRGEC
notes: expressed with M103202L889-SK1 as light chain
KD fold for humanFcgRs (SG1 = 1) [18]: 0.09 fold

B4: M103205H795-MY388 (second row so labelled: G236T/S239I/H268D/A330K) / M103202L889-SK1 (antibody, human IgG1, kappa, name in EU numbering)
heavy: B2 heavy with L238T, S241I, E270D, T328K, M398P
light: B2 light
notes: The label MY388 is printed for two different variants; also called MY388 (second of two rows with this label)
KD fold (SG1 = 1) [19]: 1.9 fold

B5: M103205H795-MY520 / M103202L889-SK1 (antibody, human IgG1, kappa, name in EU numbering)
heavy: B2 heavy with P234D, L238T, S241V, E270D, Q297L, T328K, M398P
light: B2 light
KD fold (SG1 = 1) [22]: 8.1 fold | KD fold (SG1 = 1) [23]: 3.2 fold | KD fold (SG1 = 1) [20]: 3.3 fold | KD fold (SG1 = 1) [24]: 0.23 fold

B6: M103205H795-MY528 / M103202L889-SK1 (antibody, human IgG1, kappa, name in EU numbering)
heavy: B2 heavy with L236W, L238T, E270D, T328K, M398P
light: B2 light
KD fold (SG1 = 1) [25]: 0.18 fold | Kd [26]: 350 nM | Kd [27]: 560 nM

More lines, now with the values ahead:

KD fold (SG1 = 1) [1]: 1 | KD fold (SG1 = 1) [2]: 1 | KD fold (SG1 = 1) [3]: 1 | KD fold (SG1 = 1) [4]: 1 | KD fold (SG1 = 1) [5]: 1 | KD fold (SG1 = 1) [6]: 1 | KD fold (SG1 = 1) [7]: 1 | KD fold (SG1 = 1) [8]: 1 | KD fold (SG1 = 1) [9]: 1 | Binding to cynoFcgRs (SG1 = 100) [10]: 100 | Binding to cynoFcgRs (SG1 = 100) [11]: 100 | Binding to cynoFcgRs (SG1 = 100) [12]: 100 | Binding to cynoFcgRs (SG1 = 100) [13]: 100 | Binding to cynoFcgRs (SG1 = 100) [14]: 100 | Kd [15]: 52000 nM | Kd [16]: 14000 nM | Kd [17]: 1200 nM
B1: MS1032LO06-SG1 (antibody, human IgG1, kappa)
heavy: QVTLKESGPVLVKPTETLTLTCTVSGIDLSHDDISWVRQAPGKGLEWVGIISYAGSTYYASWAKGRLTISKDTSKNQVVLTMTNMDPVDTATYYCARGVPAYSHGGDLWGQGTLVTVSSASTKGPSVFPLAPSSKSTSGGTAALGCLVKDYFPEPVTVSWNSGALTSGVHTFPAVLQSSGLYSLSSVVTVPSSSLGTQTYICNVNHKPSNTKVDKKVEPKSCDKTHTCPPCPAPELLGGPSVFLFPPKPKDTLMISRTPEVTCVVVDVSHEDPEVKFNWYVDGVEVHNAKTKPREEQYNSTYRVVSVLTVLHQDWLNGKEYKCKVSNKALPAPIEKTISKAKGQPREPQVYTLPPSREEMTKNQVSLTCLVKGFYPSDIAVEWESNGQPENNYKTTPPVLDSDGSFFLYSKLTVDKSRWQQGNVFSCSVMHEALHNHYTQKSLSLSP
light: B2 light
notes: Heavy constant region SG1, light constant region SK1; also called M103205H795-SG1

KD fold (SG1 = 1) [19]: 2.5 fold | KD fold (SG1 = 1) [20]: 2.9 fold | Kd [21]: 1300 nM
B3: M103205H795-MY530 / M103202L889-SK1 (antibody, human IgG1, kappa, name in EU numbering)
heavy: B2 heavy with L238T, E270D, M398P
light: B2 light
